Patent US20180244734A1

Biological target: anti-BBP1 polyclonal antibody
Assay: competitive ELISA, free peptide against coated BBP1-biotin peptide for the anti-BBP1 polyclonal antibody

lowest level detected: 2.5 µg/mL
Binder: HSYSTNSFSRTTNG [BBP1 peptide (SEQ ID No. 7)]
